From patent US20090137002A1 (published 2009)

Target: T1, rat EphB1 (rat, UniProt P09759 18-538, limits assumed)
T1 sequence (looked up): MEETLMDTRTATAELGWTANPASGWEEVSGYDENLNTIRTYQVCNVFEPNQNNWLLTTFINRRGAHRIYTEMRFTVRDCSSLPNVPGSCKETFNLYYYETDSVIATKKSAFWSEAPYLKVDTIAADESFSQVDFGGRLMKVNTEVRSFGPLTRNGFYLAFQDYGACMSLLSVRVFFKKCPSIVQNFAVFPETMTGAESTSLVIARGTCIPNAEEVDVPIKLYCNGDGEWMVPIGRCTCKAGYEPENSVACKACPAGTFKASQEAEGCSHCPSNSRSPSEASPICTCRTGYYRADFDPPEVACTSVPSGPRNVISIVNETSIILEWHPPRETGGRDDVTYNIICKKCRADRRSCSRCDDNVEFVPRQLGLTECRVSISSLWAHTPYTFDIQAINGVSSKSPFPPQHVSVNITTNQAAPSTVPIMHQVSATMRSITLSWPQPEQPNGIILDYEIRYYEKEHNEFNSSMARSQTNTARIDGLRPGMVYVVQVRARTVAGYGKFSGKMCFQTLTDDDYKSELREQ
Assay: ELISA, well L15 [part 2]

B1: MOR03640 Fab (Fab, V domains shown)
VH: QVQLVESGGGLVQPGGSLRLSCAASGFTFNNSWMSWVRQAPGKGLEWVSNITSSSSMTHYADSVKGRFTISRDNSKNTLYLQMNSLRAEDTAVYYCARKGMSFYNNKYAKSMFDLWGQGTLVTVSS
VL: DIELTQPPSVSVAPGQTARISCSGDNLGKKYVHWYQQKPGQAPVLVIYYDSKRPSGIPERFSGSNSGNTATLTISGTQAEDEADYYCSAWTTTMMHIVFGGGTKLTVLG
notes: Monomeric HuCAL Fab, purified, MH-tagged
  binding result: no binding
